Experimental data taken from paper PMC6676893 (Biochemistry, 2019).
Substitutions are numbered along the chain they refer to.

B1: Escherichia coli SufS R92A (enzyme, E. coli)
chain: MIFSVDKVRADFPVLSREVNGLPLAYLDSAASAQKPSQVIDAEAEFYRHGYAAVHRGIHTLSAQATEKMENVRKRASLFINARSAEELVFVAGTTEGINLVANSWGNSNVRAGDNIIISQMEHHANIVPWQMLCARVGAELRVIPLNPDGTLQLETLPTLFDEKTRLLAITHVSNVLGTENPLAEMITLAHQHGAKVLVDGAQAVMHHPVDVQALDCDFYVFSGHKLYGPTGIGILYVKEALLQEMPPWEGGGSMIATVSLSEGTTWTKAPWRFEAGTPNTGGIIGLGAALEYVSALGLNNIAEYEQNLMHYALSQLESVPDLTLYGPQNRLGVIAFNLGKHHAYDVGSFLDNYGIAVRTGHHCAMPLMAYYNVPAMCRASLAMYNTHEEVDRLVTGLQRIHRLLG
modifications: persulfide on C364 (as isolated; crystallographic occupancy 0.84); PLP, internal aldimine with K226
B2: Escherichia coli SufS H55A (enzyme, E. coli)
chain: B1 chain with H55A, A92R
modifications: persulfide on C364 (as isolated; crystallographic occupancy 0.66); PLP, internal aldimine with K226
B3: Escherichia coli SufS E250A (enzyme, E. coli)
chain: B1 chain with A92R, E250A
modifications: persulfide on C364 (as isolated; crystallographic occupancy 0.63); PLP, internal aldimine with K226
B4: Escherichia coli SufS E96A (enzyme, E. coli)
chain: B1 chain with A92R, E96A
modifications: persulfide on C364 (as isolated; crystallographic occupancy 0.80); PLP, internal aldimine with K226

Tests used:
SEC = biological target: the molecule itself; assay: SEC
crystal structure = biological target: the molecule itself; assay: crystal structure

Row | Protein | stoichiometry N (SEC) | binding result (crystal structure)
1 | B1 | 2 | 
2 | B2 |  | binds
3 | B3 | 2 | 
4 | B4 | 2 | 
